According to patent US20060287509A1 (University of California, published 2006):
Changes are numbered by the printed parent chain.

B1: C6ML3-29 (scFv)
scFv: QVQLLQSGAELKKPGESLKISCKGSGYSFTSYWIAWVRQMPGKGLEYMGLIYPGDSDTKYSPSFQGQVTISVDKSVSTAYLQWSSLKPSDSAVYFCARHDVGYCSSSNCAKWPEYFQHWGQGTLVTVSSGGGGSGGGGSGGGGSQSVLTQPPSVSAAPGQKVTISCSGSSSNIGNNYVSWYQQLPGTAPKLLIYGHTNRPAGVPDRFSGSKSGTSASLAISGFRSEDEADYYCAAWDGTLWGWVFGGGTKLTVLG
notes: C6.5 with this VL CDR3; C-terminal myc and His6 tags
B2: C6ML3-3 (scFv)
scFv: B1 scFv with A235T, G238Y, T239A, W241S
notes: as for B1
B3: C6ML3-1 (scFv)
scFv: B1 scFv with G238Y, T239S
notes: as for B1
B4: C6ML3-2 (scFv)
scFv: B1 scFv with G238H, T239S, W241S
notes: as for B1
B5: C6ML3-15 (scFv)
scFv: B1 scFv with G238R, T239P
notes: as for B1
B6: C6ML3-8 (scFv)
scFv: B1 scFv with G238H, T239L, L240R
notes: as for B1
B7: C6ML3-10 (scFv)
scFv: B1 scFv with D237E, G238D, T239P, L240W, W241Y
notes: as for B1
B8: C6ML3-12 (scFv)
scFv: B1 scFv with G238Y, T239S, L240R, W241S
notes: as for B1
B9: C6ML3-4 (scFv)
scFv: B1 scFv with A235S, D237E, G238Y, T239S
notes: as for B1
B10: C6ML3-14 (scFv)
scFv: B1 scFv with G238D, T239P
notes: as for B1
B11: C6ML3-13 (scFv)
scFv: B1 scFv with G238A
notes: as for B1
B12: C6ML3-11 (scFv)
scFv: B1 scFv with G238Y, T239A
notes: as for B1
B13: C6ML3-23 (scFv)
scFv: B1 scFv with A235S, G238H, T239S
notes: as for B1
B14: C6ML3-19 (scFv)
scFv: B1 scFv with A235S, G238R, T239P
notes: as for B1
B15: C6ML3-6 (scFv)
scFv: B1 scFv with A235S, G238Y, T239S, W241S
notes: as for B1
B16: C6-B1D6 (scFv)
scFv: QVQLLQSGAELKKPGESLKISCKGSGYSFTSYWIAWVRQMPGKGLEYMGLIYPGDSDTKYSPSFQGQVTISVDKSVSTAYLQWSSLKPSDSAVYFCARHDVGYCTDRTCAKWPEWMYPWGQGTLVTVSSGGGGSGGGGSGGGGSQSVLTQPPSVSAAPGQKVTISCSGSSSNIGNNYVSWYQQLPGTAPKLLIYGHTNRPAGVPDRFSGSKSGTSASLAISGFRSEDEADYYCASWDYTLSGWVFGGGTKLTVLG
notes: C6MH3-B1 with the library D residues of C6MH3-D6
B17: C6-B47D6 (scFv)
scFv: B16 scFv with T108S
notes: C6MH3-B47 with the library D residues of C6MH3-D6
B18: C6-B47D1 (scFv)
scFv: B16 scFv with T108S, M116L, Y117H, P118V
notes: C6MH3-B47 with the library D residues of C6MH3-D1
B19: C6-B47D5 (scFv)
scFv: B16 scFv with T108S, Y117Q, P118M
notes: C6MH3-B47 with the library D residues of C6MH3-D5
B20: C6-B47D3 (scFv)
scFv: B16 scFv with T108S, M116L, Y117D, P118N
notes: C6MH3-B47 with the library D residues of C6MH3-D3
B21: C6-B47D2 (scFv)
scFv: B16 scFv with T108S, M116L, Y117G, P118V
notes: C6MH3-B47 with the library D residues of C6MH3-D2

Biological target: T1, c-erbB-2 ECD with a Ser-Gly-His6 C-terminal fusion (UniProt P04626 23-652)
T1 construct: extracellular domain; expressed from CHO cells, IMAC purified; coupled to a CM5 chip, adsorbed to polystyrene, or biotinylated and captured on avidin; also called c-erbB-2 extracellular domain; biotinylated c-erbB-2 ECD
Experiment: SPR (BIAcore)

Binder	kon [M⁻¹ s⁻¹]	koff [s⁻¹]
B1	1.29e+06	
B2	460000	
B3	300000	
B4	710000	
B5	590000	0.0013
B6	650000	
B7	610000	
B8	450000	
B9	400000	
B10	770000	
B11	870000	
B12	610000	
B13	670000	
B14	670000	
B15	590000	

Biological target: T1, c-erbB-2 ECD with a Ser-Gly-His6 …
Experiment: from SPR (BIAcore) Kd values

Binder	ΔΔGI [kcal/mol]
B16	-0.16
B17	0.17
B18	-0.11
B19	-0.01
B20	0.29
B21	0.62
